# Test results reported in paper doi:10.1101/2023.06.01.543357, “Novel histones and histone variant families in prokaryotes” (bioRxiv, 2023).
# B1: face-to-face (FtF) histone from Thermococcus kodakarensis (HTkC) (natural protein)
# chain: MAEMLVKSKVKEFVKSVDPEMRVSPEFYDALEAEVKALVEKAIKRAQAEGRKTLYARHV
# notes: Face-to-face histone HTkC of Thermococcus kodakarensis, product of gene TK1040 (synthesised gene cloned into pET30b, plasmid pRD503); purification was by heat, heparin and size exclusion; The crystal holds four monomers (two dimers) in the asymmetric unit, forming a torus-shaped tetramer; also called FtF histone HTkC; TK1040; source: E. coli BL21(DE3)pLysS, purified (heat step at 70 °C, HiTrap …)
# Biological target: the molecule itself
# Assay: crystal structure; HTkC at 4.0 mg/mL in 50 mM Tris-HCl pH 7.0, 100 mM KCl, 10% glycerol; sitting drop vapour diffusion, reservoir 0.01 M trisodium citrate, 33% (w/v) PEG 6000; space group P212121, 1.84 Å; four monomers in the asymmetric unit; dimers to tetramer
protein,measurement,value
B1,stoichiometry N,4
